Assay results reported in patent US20020001806A1, “Caspase-3s splicing variant” (priority 2000, published 2002).
“Also recorded” adds a separate entry of the source.

Columns and labels:
Format in all cases: cell-based, human
[1] = system: endogenous caspase-3; experiment: Western blot (anti-caspase-3) of endogenous caspase-3 in untransfected 293 cells after IGAL treatment; conditions: 5 μM IGAL, 48 hours
Procedure: (§1) FIG. 6. A. 293 cells were transfected with flag-tagged caspase-3, flag-tagged caspase-3s or pcDNA3 vector, followed by IGAL treatment for 16 hours or left untreated (control). Fifty microgram of total cellular protein was assayed for caspase-3 and caspase-3s expression using antibody specific for flag-tag. The asterisk (*) indicates the N-terminal flag-tag containing activated capase-3 (20 kDa). The uppermost and lowest short arrow denote the two additional bands, 40 kDa and 14 kDa, respectively. […] 293 cells were treated with 5 μM IGAL for 48 hours. Total cell lysates were isolated and assayed for caspase-3 expression by Western blotting. The blot was probed with anticaspase-3 antibody (Pharmingen). […]
Evidence that the levels of endogenous caspase-3 and caspase-3s are regulated by proteasome degradation was also sought. Untransfected 293 cells were subjected to IGAL treatment and the cell samples were analyzed on Western blots probed with anticapase-3 antibody (Pharmingen). […] In parallel, a faint immunoreactive band of 20 kDa (p20) was detected only in the presence of IGAL treatment (FIG. 6B).

[2] = system: caspase-3 and caspase-3s expression; experiment: Western blot (anti-flag) of recombinant caspase-3 and caspase-3s in transfected 293 cells after IGAL treatment; conditions: IGAL treatment 16 hours
Procedure: as §1
Proteasome appears to regulate caspase-3 potentially in two ways. […] To examine the effects of proteasome inhibitor on the expression of caspase-3 and caspase-3s, total cellular protein from transfected 293 cells treated with proteasome inhibitor IGAL were analyzed by Western blotting probed with the N-terminal antiflag antibody. […] In addition, we reproducibly detected two additional bands with a size of 40 kDa and 14 kDa, respectively, after IGAL treatment (FIG. 6B, lane 6). […]

[3] = system: 293 cells; experiment: Cytotox 96 colorimetric LDH release cytotoxicity assay in transfected 293 cells; conditions: for apoptosis / cell death (LDH release) induced by proteasome inhibitor I: 5 μM proteasome inhibitor I, 12 hours, vs vector
Procedure: The following experiments were performed to test the hypothesis that caspase-3s acts as a dominant negative isoform of caspase-3. The pcDNA empty vector, caspase-3, and caspase-3s constructs were transfected into 293 cells using the method described above (Sun et al., Supra., 1997). After 6 to 7 hours transfection, transfection medium was replaced with fresh medium containing 5 μM of proteasome inhibitor I (Z-Ile-Glu(otBu)-Ala-Leu-CHO) (Calbiochem). Cells were then incubated for 12 hours. Twenty-five microliter of the culture medium was subjected to cytotoxicity assay using the Cytotox 96 colorimetric LDH assay kit (Promega) according to manufacturer's instruction. Statistics were performed with t-test using Microsoft Excel analysis tools.
For control cells, lactate dehydrogenase (LDH) release in caspase-3 transfected cells was compared with both vector and caspase-3s transfected cells. For proteasome inhibitor treated cells, LDH release was compared between vector and caspase-3s transfected cells.

[4] = system: 293 cells; experiment: DNA fragmentation ELISA (Cell Death Detection ELISA) in transfected 293 cells; conditions: for apoptosis induced by staurosporine (DNA fragmentation): 0.5 μM staurosporine, 20 hours; for DNA fragmentation (basal apoptosis): untreated, vs vector and caspase-3s
Procedure: (§2) Human embryonal kidney 293 cells were seeded 1×10^5 into each well of a 24-well plate and transfected with caspase-3 and caspase-3s cDNA constructs by calcium phosphate method (Sun Y., Bian J., Wang Y., Jacobs C. Oncogene 1997;14:385-93;14: 385-393). Briefly, 500 nanogram of DNA was incubated in 0.25 M CaCl2 solution for 10 minutes at room temperature. The mixture was then incubated with 1×HEPES buffer (pH 6.88) for 15 minutes at room temperature before being added to the culture medium. After 6 to 7 hours transfection, transfection medium was replaced with fresh Opti-MEMI medium (GIBCO) containing 5 μM of Proteasome Inhibitor I (Z-Ile-Glu(otBu)-Ala-Leu-CHO) (Calbiochem) and incubated for 16 hours. For staurosporine treatment, cells were allowed to grow for 24 hours in serum containing medium after transfection. Cells then incubated with 0.5 μM staurosporine (Calbiochem) in Opti-MEMI medium for 20 hours.
DNA fragmentation ELISA was performed using the Cell Death Detection ELISA kit (Boehringer Mannheim) following the instruction provided by the supplier. Briefly, after 16 hours treatment with IGAL (Proteasome Inhibitor I), 293 cells were lysed by incubation with 500 μL of cell lysis buffer for 2 hours at room temperature. The lysate were then centrifuged at 200×g for 10 minutes. Twenty microliter of the supernatant were transferred into the streptavidin coated microtiter plate for analysis using the reagents provided with the assay kit. Statistical analyses were performed with student t-test using Microsoft Excel analysis tools.

[5] = system: PARP; experiment: PARP cleavage to 85 kDa breakdown product by Western blot in transfected 293 cells; conditions: for PARP cleavage (Western blot): IGAL treatment 16 hours, vs vector control; for PARP breakdown product (85 kDa), densitometric quantification: normalized to vector control, n=8
Procedure: as §2
Preparation of whole cell lysates and Western blotting were performed as previously described (McGinnis K. M., Gnegy M. E., Wang K. K. W. Endogenous bax translocation in SH-SY5Y human neuroblastoma cells and cerebellar granule neurons undergoing apoptosis. J. Neurochem. 1999;72:1899-1906; Huang Y., Domann F. E. Transcription factor AP-2 mRNA and DNA binding activity are constitutively expressed in SV40-immortalized but not normal human lung fibroblasts. Arch. Biochem. Biophys. 1999;364: 241-246). The blots were probed with antihuman caspase-3 p20 goat polyclonal antibody (Santa Cruz, CAT #sc-1226), antihuman caspase-3 rabbit polyclonal antibody (Pharmingen, CAT #65906E), antiflag monoclonal antibody (Sigma, CAT #F3165), or antihuman monoclonal PAPR antibody (Biomol Research Laboratories, Inc CAT #SA-250).
It is known that cleavage of caspase-3 substrates, such as poly(ADP)ribose polymerase (PARP), is prerequisite for apoptosis. Therefore, the effects of caspase-3s overexpression on PARP cleavage in both control and IGAL treated 293 was examined, along with caspase-3 overexpression as positive control. Cleavage of PARP to an immunoreactive breakdown product (85 kDa) was measured by Western blot.

Z-Ile-Glu(otBu)-Ala-Leu-CHO [IGAL]
endogenous activated caspase-3 (p17) [1]: appearance of the 17 kDa activated caspase-3 (p17) | levels of endogenous full-length caspase-3 (p32) [1]: remain the same; also recorded: stabilized endogenous caspase-3 expression | amount of recombinant caspase-3s ([2]; flag-tagged caspase-3s transfected 293 cells): dramatic increase | abundance of recombinant full length caspase-3 (32 kDa band) ([2]; flag-tagged caspase-3 transfected 293 cells): decrease in the abundance

B1: caspase-3: full length caspase-3 (32 kDa) cDNA in pcDNA3 vector transfected into 293 cells (protein, UniProt P42574 1-277, looked up)
chain: MENTENSVDSKSIKNLEPKIIHGSESMDSGISLDNSYKMDYPEMGLCIIINNKNFHKSTGMTSRSGTDVDAANLRETFRNLKYEVRNKNDLTREEIVELMRDVSKEDHSKRSSFVCVLLSHGEEGIIFGTNGPVDLKKITNFFRGDRCRSLTGKPKLFIIQACRGTELDCGIETDSGVDDDMACHKIPVEADFLYAYSTAPGYYSWRNSKDGSWFIQSLCAMLKQYADKLEFMHILTRVNRKVATEFESFSFDATFHAKKQIPCIVSMLTKELYFYH
modifications: full-length
notes: full length caspase-3 (32 kDa) cDNA in pcDNA3 vector transfected into 293 cells
apoptosis / cell death (LDH release) induced by proteasome inhibitor I [3]: underwent substantial apoptosis | apoptosis (LDH release) ([3]; untreated condition, vs vector and caspase-3s transfected cells): significantly increased apoptosis | apoptosis induced by staurosporine (DNA fragmentation) [4]: did not reduce | DNA fragmentation (basal apoptosis) [4]: significantly increased DNA fragmentation | DNA fragmentation (basal apoptosis) ([4]; listed as capase-3): induced basal apoptosis | PARP cleavage (Western blot) [5]: enhanced by IGAL treatment | basal PARP cleavage (Western blot) ([5]; nontreated): increased basal PARP cleavage | PARP breakdown product (85 kDa), densitometric quantification [5]: increased PARP cleavage

B2: caspase-3s: novel splicing variant of caspase-3, C-terminal truncated, 182 amino acids (SEQ ID No. 2); tested as transfected pcDNA3 cDNA construct (protein, listed as Homo sapiens)
chain: MENTENSVDSKSIKNLEPKIIHGSESMDSGISLDNSYKMDYPEMGLCIIINNKNFHKSTGMTSRSGTDVDAANLRETFRNLKYEVRNKNDLTREEIVELMRDVSKEDHSKRSSFVCVLLSHGEEGIIFGTNGPVDLKKITNFFRGDRCRSLTGKPKLFIIQVIILGEIQRMAPGSSSRFVPC
apoptosis / cell death (LDH release) induced by proteasome inhibitor I [3]: significantly inhibited; also recorded: inhibits apoptotic cell death | apoptosis / cell death (LDH release) induced by proteasome inhibitor I ([3]; listed as Caspase-3s): inhibits cell death | apoptosis induced by staurosporine (DNA fragmentation) [4]: no significant effect | DNA fragmentation (apoptosis) induced by IGAL ([4]; 5 μM IGAL, 16 hours, vs vector control and caspase-3, n=4): partially but significantly inhibited apoptosis; also recorded: significantly (# p<0.05) inhibited DNA fragmentation | PARP cleavage (Western blot) [5]: partially but significantly inhibited the cleavage of PARP | PARP cleavage (Western blot) ([5]; listed as Caspase-3s): partially inhibited PARP cleavage | PARP breakdown product (85 kDa), densitometric quantification [5]: significantly decreased
